Measurements from the DeepSol protein solubility set.

Assay: soluble on expression in E. coli; label from the status in PepcDB or PDB records
With “MAHHHHHHMSRNPSNSDAAHAFWSTQPVPQTEDETEKIVFAGPMDEPKTVADIPEEPYPIASTFEWWTPNMEAADDIHAIYELLRDNYVEDDDSMFRFNYSEEFLQWALCPPNYIPDWHVAVRRKADKKLLAFIAGVPVTLRMGTPKYMKVKAQEKGEGEEAAKYDEPRHICEINFLCVHKQLREKRLAPILIKEATRRVNRTNVWQAVYTAGVLLPTPYASGQYFHRSLNPEKLVEIRFSGIPAQYQKFQNPMAMLKRNYQLPSAPKNSGLREMKPSDVPQVRRILMNYLDSFDVGPVFSDAEISHYLLPRDGVVFTYVVENDKKVTDFFSFYRIPSTVIGNSNYNLLNAAYVHYYAATSIPLHQLILDLLIVAHSRGFDVCNMVEILDNRSFVEQLKFGAGDGHLRYYFYNWAYPKIKPSQVALVML” the “soluble on expression in E. coli” value was “not soluble”.
With “MTDKENFYSGFFLGRLPGSFDSRFLIKVACFQPGKEERNVFELTTDTKREEDYGEMVHFWVDKGPLQNKSFVRFEENYETFFIHENKMFDRIVHTDKDFYVGVNDLPDSDIYIHPDLGKMIDTRSIVTPGKKYNFITFEVKQNENNSFDIEIVGGEVQGKEKNSEEPSAKEKIIQKMEQVHEVMKVEYEYNKNEETANWDVIGHLKLIKFYDKDLTSGLRPVLRLMDNRHVALFKKQRETMPIKMIKVIEVDGIWKDDVNFVPQEGTLLPTDHDEKTVVLLGNDYRHKFERLFKREDVFRLESNNTLTHLKFWQYGLEKI” the “soluble on expression in E. coli” value was “not soluble”.
With “REGKASTVNPGNGNVPDAEDLQALFDVIYEVMPEPTVNVDGPLQAHVTNLDSSSFLGRIGLIRVHSGSLKKGQQVAWIHYDEEGNQHTKTAKIAELLRTVGVTRVPADEVVAGDIAAISGIDSIMIGDTLADLEHPVALPRITVDEPAISMTIGVNTSPLAGRGGGDKLTARVVKARLEQELIGNVSLRVLPTERPDAWEVQGRGEMALSVLVETMRREGFELTVGKPQVVTQTVDGKLFEPYEHMVIDIPSEYQGNVTQLMAARKGQMLSMDNISDEWVRMEYKVPARGLISFRTMFMTETRGTGIANSYSEGLDEWAGEIKGRATGSLVADRSGQITAYALQQLADRGNFFVEPGTEAYEGMVVGANNRDEDMDVNITREKKLTNMRSATADATVTLAKARSLSLDEAMEFCGQDECVEVTPDVLRVRKVILNATERGRARAREKARNK” the “soluble on expression in E. coli” value was “not soluble”.
In the case of “MQAQNMTEASTVHVEHDPVRQRFNVDTDGHRAELAYRREGEIMTITHTQVPDAVSGRGIAAALVEDALAFARQHGLKVVPACRYADAYVRRHPRYQDLLAMAGDPLEHHHHHH”, the “soluble on expression in E. coli” value is reported as “not soluble”.
For “MKPVQLTVDNIAKAIFTVNRHAKTALNPSFLYLLKKKAIEKLLEEGKAKKVGLHFSRNPKYSQQQSDVLVAVGDYYFHIPPTKQDFAALPHLGSLNDSYRNPPARMPLSEAKAILIAYTGLREKPEQKPKRLTRPVFKRLGDRY”, the “soluble on expression in E. coli” value was “not soluble”.
With “MSLVLDKLLYTGYNRLIDLGWRRSGHYLYKPNGKTSCCSLYTIRLDSYNFKIAKEQKKAIKKWVKYVNGKPLKPMKSEISTDYLNNAFQTIESLGAEKYSVTMEPCTYTDEKFEVFKKYQMQVHLEKEEEITKKGFSRFLCNSPLFNEDKGIKYGSYHQMYRFQGRLVAVGVLDLLPHGVSSVYLFYDPDMSKFSLGRISACREIWLALECGYRYYYMGYYIHTCPKMKYKATYSPSYLLNPGTNKWIPIENFTSLWNTGAPKYISFGDENNSDIQTAVDYDSSEDSSQNEDDYTLFNRQLPGILSVNVAESLVSENFANIGNSTFPTRHVLSYFPQVKHWFVEINAAVGEEVAKSYTLVLSSEGHHHHHH” the “soluble on expression in E. coli” value was “not soluble”.
For “MAHHHHHHMTGLIAPHAGMSYSGRTAAEAFAVFREYLYAKGSKGSELERIFILGPSHTRGFEGCELSAASAYETPFGPLRVDTAVVDRVITDLRKAGVGAATASRRTDEAEHSIEMETPYLSHILHYPPTTTGAPVQPAAGRVAIVPIIVGWTNRQDEKAICDVLKPYMDDARNFFICSSDFCHWGERFSYTYHYKRSEYPNIGDSIIAMDHAAMELLEKRDLERWYAYLQMTKNTICGRAPISIGMQRWASKGNKARVKFVHYSQSNKCKDADDSSVSYAAAIIME”, the “soluble on expression in E. coli” value was “soluble”.
With “MSLKHQFSRNELAYGQEGLDLLKEKTVAVLGVGGVGSFAAEALARTNIGHIILIDKDDVDITNVNRQIHALTTTIGQSKVTLMEERIKLINPDCKVTPLHMFYTEETYEDLFNNYDIDYFIDASDTIIYKVHLMKECLERGIKMISSMGAANKTDPTRFKIADISKTYMDPMAKIIRNKLKRQGIKKGVPVVFSDESPIVIREDVKATVGDANAINRKGQMPPSSNAFVPSTVGLICASYVVNDILKNIPVRRIKDKGNEGHHHHHH” the “soluble on expression in E. coli” value was “soluble”.
In the case of “MERVSITERPDWREKAHEYGFNFHTMYGEPYWCEDAYYKLTLAQVEKLEEVTAELHQMCLKVVEKVIASDELMTKFRIPKHTWSFVRQSWLTHQPSLYSRLDLAWDGTGEPKLLENNADTPTSLYEAAFFQWIWLEDQLNAGNLPEGSDQFNSLQEKLIDRFVELREQYGFQLLHLTCCRDTVEDRGTIQYLQDCATEAEIATEFLYIDDIGLGEKGQFTDLQDQVISNLFKLYPWEFMLREMFSTKLEDAGVRWLEPAWKSIISNKALLPLLWEMFPNHPNLLPAYFAEDDHPQMEKYVVKPIFSREGANVSIIENGKTIEAAEGPYGEEGMIVQQFHPLPKFGDSYMLIGSWLVNDQPAGIGIREDRALITQDMSRFYPHIFVE”, the “soluble on expression in E. coli” value is reported as “soluble”.
With “MNARKAPEFPAWPQYDDAERNGLVRALEQGQWWRMGGDEVNSFEREFAAHHGAAHALAVTNGTHALELALQVMGVGPGTEVIVPAFTFISSSQAAQRLGAVTVPVDVDAATYNLDPEAVAAAVTPRTKVIMPVHMAGLMADMDALAKISADTGVPLLQDAAHAHGARWQGKRVGELDSIATFSFQNGKLMTAGEGGAVVFPDGETEKYETAFLRHSCGRPRDDRRYFHKIAGSNMRLNEFSASVLRAQLARLDEQIAVRDERWTLLSRLLGAIDGVVPQGGDVRADRNSHYMAMFRIPGLTEERRNALVDRLVEAGLPAFAAFRAIYRTDAFWELGAPDESVDAIARRCPNTDAISSDCVWLHHRVLLAGEPELHATAEIIADAVARA” the “soluble on expression in E. coli” value was “soluble”.
With “MSTIIDVYAREVLDSRGNPTVEVEVYTESGAFGRAIVPSGASTGEHEAVELRDGDKSRYLGKGVMNAVNNVNEAIAPEIVGFDVTDQAGIDRAMIELDGTPNKGKLGANAILGVSMAVAHAAADFVGLPLYRYLGGFNAKQLPTPMMNIINGGSHADNNVDFQEFMILPVGAPTFKESIRMGAEVFHALKAVLHDKGLNTAVGDEGGFAPNLGSNREALEVIIEAIEKAGYKAGENVFLGMDVASSEFYNKETGKYDLAGEGRTGLTSAEMVDFYEELCKDFPIISIEDGLDENDWDGHKLLTERIGDKVQLVGDDLFVTNTQKLAEGIEKGISNSILIKVNQIGTLTETFEAIEMAKRAGYTAVVSHRSGETEDATIADIAVATNAGQIKTGSMSRTDRIAKYNQLLRIEDELGEIAVYDGIKSFYNIKR” the “soluble on expression in E. coli” value was “soluble”.
In the case of “MVDPNEHKKAVKTQQQDDEQTFEAVARAWHTDNKKWSESHAERILKSLSDNIFPAIGGTHVANLKTRDLLTPIKSVERSGRLEVAKRLKQRVTAIMTYAVQNGLIDYNPAQDMAGAIMPGKVEHRLEHHHHHH”, the “soluble on expression in E. coli” value is reported as “not soluble”.
With “MNPIASNSAVTLHFTIKLKDGSVADSTHNQGKPAKLVMGDGSLSPNFEQCLLGMLPGEKKSVALAAQDAFGAPNPDHVHYMDRSKFLGGDLQLEVGTIMAFSGPDGMEIPGIITEIAGDSVTVDFNHPLAGQDITFDVEILSVE” the “soluble on expression in E. coli” value was “not soluble”.
With “MGSDKIHHHHHHMNALRLEDLISVEMLQKVQDNFSAAVGIAMIIVDERGTPVTRPSNFSAFCQTIRTSAARRDQCFQCDDDGGRRAMAMGEPSIYQCHCGLVDFAAPIIVRDQYLGAVISGQVRLRQGHEVTLEYIAPPDESWRQDAHLIALREKITEIPYVKLRSAAYTLYHLAAYLVEESYSNAVSQELSAKNLKLMEESKRRVELEKSLREAELQALSYQVNPHFLFNVLNTIGRLALKEHAPKTEDMLYAFADMMRYVLKKSRSQIVSLQTEVGHVRNYLHIQKVRMGDRFTFTMDVPAKYDGILCPFMVLHPIVENSINYAIEPHEADGRIEITARDDGLNMILRVVDNGDGVSPELVRAALDGVAEPHGRTSIGLHNVDSRLRHFFGPDYGLTVESPATPGGRHGRRDALSPGLRSLRHLNACAEERRLCTALSLLKTRNSSARRCAPF” the “soluble on expression in E. coli” value was “not soluble”.
With “RARADKQHVLDMLFSAFEKHQYYNLKDLVDITKQPVVYLKEILKEIGVQNVKGIHKNTWELKPEYRHYQ” the “soluble on expression in E. coli” value was “soluble”.
For “SLKDELHKLSYLDANRILEERLTETRYFSLNSNEYKNFQTSNPNFLFAAVIDGHAGGTIADVARKSLGYYLKKELIEIGVNSKRGGCRERAIVSALKKAHLNFDNDLLNQSKDYFLNGTSKYARTGACSLSVLIDERNYYISNIGDSVGLLIKKHFYLPLNRIHNASEFNEKRKLLEEHPNEEDILVCKICTRDYKTVNNNNTYELCKTPFHLLSHHYDNCYVKGRLQPTRSFGDFHLKKKMFAYSVDGTRLFVPEPHSFPYISAEPELRVMKKHPDDQFIVLMSDGVYEFLNHAQVINVIKTYGASPERAAKELINRVLEAAAYSSGMTMKQLLNLDPSIRRNFYDDVSVVVIKLN”, the “soluble on expression in E. coli” value was “not soluble”.
With “MGHHHHHHSHMTSYDQIWETFLNNCETSDFDVPQQEEDIYKSIRNAILHFNNRLRDNLKADNSTETVNRELSEDDLLILAHFLRYIFLLNKKTLFENTWQPFTNDVGIKNFGTQLNSLKQSVMDQKDEIERLILNAAVDYL” the “soluble on expression in E. coli” value was “soluble”.
For “MSLKHLWFEKGAYASKAARQYLNDHFNPLAVKKTAVIRHAALGDQVIVRPFLVEARKFFPNAEITLVTVSNYLYGTPSDLADKTVIMKSRDDSKQLSLRQKWQDYNQLEAQDIIFDVAGTNRSYWMTLLTKAKLKVGFPYKPFLCGTLYNLAVFRSDFQPEVECMLDMLKILGHNPSYPLDFAYPDNRQICDHAAPYIVYFSGASQLRKILTKPEMRAVIEQTIQQQPNVKHVFLEGKNEFEKGEYLQDLADNGSLTIQPCLPLDDLVTFIAKATLVIAPDTGIRNVAISTHTPTVGIFYATVPFRYTPLYEAHTIVMNANGEKPSTEQITSAIDTTLKMRLAAAKNTQEQEGHHHHHH”, the “soluble on expression in E. coli” value was “soluble”.
In the case of “MSLRDISILLAEDESELRELLHEYLQLFFGRVYAATSGDQAYDIYKQKKPDIIITDISMPNLDGLEMISKIRESDKETKIIVMSAHSEQERLLLAIKLNLESYLIKPIKTEALKTILLDIVKHLREKSRRTYVTENIYWEHETNTLWGNSKEIKLRKMESMLLKLLFSRPNEIFSTKEIFDYLHETKNDKEFSVHAVTSLMKRLRAKLPNEVIHNIYGSGYKIIPIEGHHHHHH”, the “soluble on expression in E. coli” value is reported as “soluble”.
For “MAHHHHHHMFSSHKTPAKAQRDGYDDEQHLVAAVSEFKKVEASNQSMVDQLHQRLASPFQITAKPCEAGRAAVLQCYQQLQSSSAVTTSNAASSTSPAPPPGARSDSKSAKVAPAEAWLSIPYQQCYETALAYHQCVEDTLAKHLALVAAFEQCGTQQKIAHQSAMKAQDKPQ”, the “soluble on expression in E. coli” value was “soluble”.
With “MEGEAELWNFLERHLRSIYEGDWATYEATTHEELSLYEWFVTPHRLDGLPFHRFMVEKNWATRGRAYRLDLLEKRLQRYGDVAIFSYTLLLTVEEEAGLRHRAVNESRVAVRFPEGWKVVHVHKSPAG” the “soluble on expression in E. coli” value was “soluble”.
In the case of “MGSDKIHHHHHHMSRVETIINELSLIASNPRKAMEDYKKETGKGAVGIMPVYAPEELVHAAGFLPMGIWGGQKSISKARTYLPPFACSIMQSVMEMQLEGVYDDLEAVIFSVPCDTLKCLSQKWKGKSPVIVFTHPQNRKLEAANKFLVEEFKLVREKLEKILNVKITDEAINNSIEVYNENRKVMREFSDIAGQYSKTISAAARHAVIKARFFMEKSKHTAMVRELINELKAMPAEECGKKVVLTGIMAEPNEVLDILTENGFTVVADDLAQESRQFRLDVPAGTDPLYRLAEWWQQFDGCALATNVKKPRGQMLMDMVKKYDADAVIVCMMKFCDPEEFDYPIYYSQFEEAGIKSLYIEIDQESTSFEQIKTRVQSFGEML”, the “soluble on expression in E. coli” value is reported as “not soluble”.
